Assay results published in patent US20200231691A1 (Hoffmann-La Roche, published 2020).
Numbering of substitutions follows the chain as printed. Names and notes keep the numbering of the source.

Tests used:
murine EpCAM = target: T1, murine EpCAM (murine, UniProt Q99JW5 24-315); experiment: flow cytometry, muEpCAM+ CT26muEpCAM cells
T1 construct: Stably expressed on CT26muEpCAM cl25 cells; also called muEpCAM; CT26muEpCAM cells
T1 sequence: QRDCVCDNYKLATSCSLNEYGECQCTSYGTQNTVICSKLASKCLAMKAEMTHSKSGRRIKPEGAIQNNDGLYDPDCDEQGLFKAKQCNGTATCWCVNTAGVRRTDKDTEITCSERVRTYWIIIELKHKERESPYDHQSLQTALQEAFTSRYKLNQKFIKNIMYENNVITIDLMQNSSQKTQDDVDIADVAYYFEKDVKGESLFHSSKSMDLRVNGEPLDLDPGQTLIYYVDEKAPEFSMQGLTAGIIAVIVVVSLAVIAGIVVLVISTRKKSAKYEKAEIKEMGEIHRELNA
Procedure: (§1) The binding to cell surface murine EpCAM was analysed using mouse EpCAM-positive CT26muEpCAM c125 cells, which stably expresses murine EpCAM. The specificity of binding was analysed by determination of binding to muEpCAM-negative cell line CT26muFAP, which stably expresses murine FAP.
(§2) For analysis of binding of the antigen binding molecules, 0.5×10⁵ CT26muEpCAM or 0.5×10⁵ CT26muFAP cells were added to wells of round-bottomed suspension cell 96-well plates (greiner bio-one, cellstar, Cat. No. 650185). For discrimination of live and dead cells, samples were stained with Zombie Aqua Viability Dye (Biolegend, Cat. No 423102) in PBS for 10 minutes at room temperature. Cells were then washed once with FACS buffer and subsequently stained for 90 minutes at 4° C. in the dark in 50 μL/well 4° C.
(§3) Plates were finally resuspended in 85 μL/well FACS-buffer and acquired the same day using 4-laser LSR-II cytometer (BD Bioscience with DIVA software).

murine FAP = target: T2, murine FAP (murine, UniProt P97321 1-761); experiment: flow cytometry on CT26muFAP cells, which stably express murine FAP
T2 construct: whole, on cells; CT26muFAP served as the muEpCAM-negative specificity control cell line; also called muFAP; CT26muFAP cells
T2 sequence (looked up): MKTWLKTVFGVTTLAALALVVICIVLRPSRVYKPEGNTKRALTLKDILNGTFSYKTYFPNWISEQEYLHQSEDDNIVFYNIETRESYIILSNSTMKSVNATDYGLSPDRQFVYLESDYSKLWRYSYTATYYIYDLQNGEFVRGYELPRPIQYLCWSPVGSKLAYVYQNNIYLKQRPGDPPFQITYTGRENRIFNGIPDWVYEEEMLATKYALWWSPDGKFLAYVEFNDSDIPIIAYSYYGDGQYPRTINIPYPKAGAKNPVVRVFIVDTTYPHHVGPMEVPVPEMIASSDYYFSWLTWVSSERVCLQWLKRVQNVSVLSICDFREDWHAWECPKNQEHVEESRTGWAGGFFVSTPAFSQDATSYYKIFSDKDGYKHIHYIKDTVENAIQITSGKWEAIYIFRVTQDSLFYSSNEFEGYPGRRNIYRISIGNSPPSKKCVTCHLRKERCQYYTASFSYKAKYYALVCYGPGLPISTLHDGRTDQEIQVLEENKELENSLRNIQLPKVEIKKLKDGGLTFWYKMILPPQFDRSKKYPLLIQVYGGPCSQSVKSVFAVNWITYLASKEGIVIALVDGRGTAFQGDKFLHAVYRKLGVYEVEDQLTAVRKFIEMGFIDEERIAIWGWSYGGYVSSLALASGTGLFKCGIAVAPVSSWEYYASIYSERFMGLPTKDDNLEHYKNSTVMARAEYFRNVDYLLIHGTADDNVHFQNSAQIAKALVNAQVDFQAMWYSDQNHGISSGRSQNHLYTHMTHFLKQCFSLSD
Procedure: as §1, §2, §3

human EpCAM = target: T3, human EpCAM (human, UniProt P16422 24-314); experiment: flow cytometry, huEpCAM+ KATO-III cells
T3 construct: Endogenous on KATO-III cells and stably expressed on NIH/3T3huEpCAM clone 44 cells; also called huEpCAM; KATO-III cells
T3 sequence: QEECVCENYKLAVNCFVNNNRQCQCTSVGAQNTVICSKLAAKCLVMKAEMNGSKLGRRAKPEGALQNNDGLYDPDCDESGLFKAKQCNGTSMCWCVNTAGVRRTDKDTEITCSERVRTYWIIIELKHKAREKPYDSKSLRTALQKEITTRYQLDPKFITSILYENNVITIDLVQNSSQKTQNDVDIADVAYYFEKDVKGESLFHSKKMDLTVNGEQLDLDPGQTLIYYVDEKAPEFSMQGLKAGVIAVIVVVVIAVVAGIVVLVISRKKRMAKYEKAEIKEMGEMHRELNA
Procedure: For discrimination of live and dead cells, samples were stained with Zombie Aqua Viability Dye (Biolegend, Cat. No 423102) in PBS for 10 minutes at room temperature. Cells were then washed once with FACS buffer and subsequently stained for 90 minutes at 4° C. in the dark in 50 μL/well 4° C.

[1] = target: T4, biotinylated monomeric human OX40 antigen Fc(kih) fusion molecule (human, UniProt P0DOX5 223-449 = IgG part, biotinylated at the C-terminal Avi tag (BirA)); experiment: ELISA, biotinylated human OX40 on neutravidin plates, Fab supernatants, anti-Flag/HRP
T4 construct: also called biotinylated human OX40; hu OX40
Procedure: Selections were carried out over 3 or 4 rounds using constant antigen concentrations of 100 nM. […] In rounds 2 and 4, in order to avoid enrichment of binders to neutravidin, capture of antigen: phage complexes was performed by addition of 5.4×10⁷ streptavidin-coated magnetic beads. […] Fab-containing bacterial supernatants were added and binding Fabs were detected via their Flag-tags using an anti-Flag/HRP secondary antibody. […] They were bacterially expressed in a 0.5 liter culture volume, affinity purified and further characterized by SPR-analysis using BioRad's ProteOn XPR36 biosensor.

human OX40 [2] = target: T5, human OX40 (human, UniProt P43489 29-277); experiment: flow cytometry, activated human OX40+ CD4+ T cells
T5 construct: Recombinant on HeLa reporter cells in the NFkB assay; also called huOX40; CD134
T5 sequence: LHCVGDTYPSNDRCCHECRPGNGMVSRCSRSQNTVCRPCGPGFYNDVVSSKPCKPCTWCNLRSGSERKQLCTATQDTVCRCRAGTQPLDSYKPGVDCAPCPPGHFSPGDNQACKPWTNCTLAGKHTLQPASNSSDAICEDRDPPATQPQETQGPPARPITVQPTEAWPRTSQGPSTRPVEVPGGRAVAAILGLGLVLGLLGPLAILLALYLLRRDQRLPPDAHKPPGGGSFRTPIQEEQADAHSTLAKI
Procedure: (§4) For discrimination of live and dead cells, samples were stained with Zombie Aqua Viability Dye (Biolegend, Cat. No. 423102) in DPBS for 10 minutes at room temperature. […] After three washes with excess FACS buffer, cells were stained for 30 minutes at 4° C. in the dark in 25 μL/well 4° C. FACS buffer containing a mixture of fluorescently labeled anti-human CD4 (clone RPA-T4, mouse IgG1 k, BioLegend, Cat. No. 300532), anti-human CD8 (clone RPa-T8, mouse IgG1k, BioLegend, Cat.-No. 3010441) and Fluorescein isothiocyanate (FITC)-conjugated AffiniPure anti-human IgG Fcγ-fragment-specific goat IgG F(ab′)2 fragment (Jackson ImmunoResearch, Cat. No. 109 096 098).

human OX40 [3] = target: T5, human OX40; experiment: flow cytometry, activated human OX40+ CD8+ T cells
Procedure: as §4

B1: monospecific, bivalent anti-murine EpCAM IgG (parental bivalent anti-muEpCAM antibody) (antibody, V domains shown)
VH: EVQLAESGGGLVQPGRSMKLSCAASGFTFSNFPMAWVRQAPTKGLEWVATISTSGGSTYYRDSVKGRFTISRDNAKSTLYLQMNSLRSEDTATYYCTRTLYILRVFYFDYWGQGVMVTVSS
VL: DIQMTQSPASLSASLGETVSIECLASEGISNDLAWYQQKSGKSPQLLIYATSRLQDGVPSRFSGSGSGTRYSLKISGMQPEDEADYFCQQSYKYPWTFGGGTKLELK
notes: it was detected with anti-mouse IgG Fc; also called muEpCAM IgG; G8.8
EC50 (murine EpCAM): 2.87 nM
binding result (murine FAP): no binding

B2: monospecific, bivalent anti-human EpCAM IgG (parental bivalent anti-human EpCAM antibody, clone 3-17I, Affitech) (antibody, V domains shown)
VH: QVQLVQSGAEVKKPGSSVKVSCKASGGTFSSYAISWVRQAPGQGLEWMGGIIPIFGTANYAQKFQGRVTITADESTSTAYMELSSLRSEDTAVYYCARGLLWNYWGQGTLVTVSS
VL: EIVMTQSPATLSVSPGERATLSCRASQSVSSNLAWYQQKPGQAPRLIIYGASTTASGIPARFSASGSGTDFTLTISSLQSEDFAVYYCQQYNNWPPAYTFGQGTKLEIK
notes: IgG; it was detected with an anti-human IgG secondary; also called huEpCAM IgG; 3-171
EC50 (human EpCAM): 3.11 nM

B3: anti-OX40 clone 17A9 (phage-derived Fab) (Fab, V domains shown)
VH: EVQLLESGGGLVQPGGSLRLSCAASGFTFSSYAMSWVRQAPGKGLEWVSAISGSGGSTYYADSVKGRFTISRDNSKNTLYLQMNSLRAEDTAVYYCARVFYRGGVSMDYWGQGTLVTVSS
VL: SSELTQDPAVSVALGQTVRITCQGDSLRSYYASWYQQKPGQAPVLVIYGKNNRPSGIPDRFSGSSSGNTASLTITGAQAEDEADYYCNSRVMPHNRVFGGGTKLTV
notes: Tested as a Flag-tagged Fab in bacterial supernatant (lambda-DP47 library); also called OX40 (17A9)
binding result [1]: binds

B4: anti-OX40 clone 1G4 (phage-derived Fab) (Fab, V domains shown)
VH: QVQLVQSGAEVKKPGSSVKVSCKASGGTFSSYAISWVRQAPGQGLEWMGGIIPIFGTANYAQKFQGRVTITADKSTSTAYMELSSLRSEDTAVYYCAREYGSMDYWGQGTTVTVSS
VL: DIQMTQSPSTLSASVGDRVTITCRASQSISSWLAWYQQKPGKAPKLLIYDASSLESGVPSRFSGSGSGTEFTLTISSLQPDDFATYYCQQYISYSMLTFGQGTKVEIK
notes: Tested as a Flag-tagged Fab in bacterial supernatant (DP88-4 library); also called OX40 (1G4)
binding result [1]: binds

B5: anti-OX40 clone 20B7 (phage-derived Fab) (Fab, V domains shown)
VH: QVQLVQSGAEVKKPGSSVKVSCKASGGTFSSYAISWVRQAPGQGLEWMGGIIPIFGTANYAQKFQGRVTITADKSTSTAYMELSSLRSEDTAVYYCARVNYPYSYWGDFDYWGQGTTVTVSS
VL: DIQMTQSPSTLSASVGDRVTITCRASQSISSWLAWYQQKPGKAPKLLIYDASSLESGVPSRFSGSGSGTEFTLTISSLQPDDFATYYCQQYQAFSLTFGQGTKVEIK
notes: Tested as a Flag-tagged Fab in bacterial supernatant (DP88-4 library); also called OX40 (20B7)
binding result [1]: binds

B6: anti-OX40 clone 49B4 (phage-derived Fab) (Fab, V domains shown)
VH: QVQLVQSGAEVKKPGSSVKVSCKASGGTFSSYAISWVRQAPGQGLEWMGGIIPIFGTANYAQKFQGRVTITADKSTSTAYMELSSLRSEDTAVYYCAREYYRGPYDYWGQGTTVTVSS
VL: B5 VL with Q92S, A93S, F94Q, S95P, L96Y
notes: Tested as a Flag-tagged Fab in bacterial supernatant (DP88-4 library); also called OX40 (49B4)
binding result [1]: binds

B7: bispecific, tetravalent anti-human OX40, bivalent anti-human EpCAM 4+2 molecule (OX40 49B4/EpCAM 3-17I P329GLALA 4+2) (bispecific antibody, human IgG1, kappa, L234A L235A)
heavy: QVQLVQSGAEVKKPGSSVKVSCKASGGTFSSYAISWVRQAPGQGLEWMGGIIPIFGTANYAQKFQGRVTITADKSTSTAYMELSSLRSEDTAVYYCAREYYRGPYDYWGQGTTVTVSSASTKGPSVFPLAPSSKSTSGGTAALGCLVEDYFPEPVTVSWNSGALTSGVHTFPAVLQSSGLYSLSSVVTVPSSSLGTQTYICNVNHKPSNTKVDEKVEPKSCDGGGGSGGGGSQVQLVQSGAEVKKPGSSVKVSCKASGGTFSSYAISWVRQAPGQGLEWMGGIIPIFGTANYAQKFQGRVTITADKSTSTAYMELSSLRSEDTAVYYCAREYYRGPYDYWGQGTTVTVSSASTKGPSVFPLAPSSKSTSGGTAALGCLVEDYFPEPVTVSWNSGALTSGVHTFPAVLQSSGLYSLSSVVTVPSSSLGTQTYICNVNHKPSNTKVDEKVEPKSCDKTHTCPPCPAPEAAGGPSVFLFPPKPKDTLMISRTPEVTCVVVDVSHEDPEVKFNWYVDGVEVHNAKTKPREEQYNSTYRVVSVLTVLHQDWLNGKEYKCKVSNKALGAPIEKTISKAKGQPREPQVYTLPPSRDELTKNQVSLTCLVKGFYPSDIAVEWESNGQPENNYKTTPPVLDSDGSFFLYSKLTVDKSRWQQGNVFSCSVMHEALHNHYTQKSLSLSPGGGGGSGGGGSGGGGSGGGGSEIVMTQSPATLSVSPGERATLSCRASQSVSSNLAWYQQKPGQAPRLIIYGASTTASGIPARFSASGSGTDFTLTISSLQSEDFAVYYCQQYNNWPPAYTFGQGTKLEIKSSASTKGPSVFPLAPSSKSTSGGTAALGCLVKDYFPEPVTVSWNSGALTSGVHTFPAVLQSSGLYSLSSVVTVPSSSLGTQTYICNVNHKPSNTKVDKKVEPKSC
light 1: DIQMTQSPSTLSASVGDRVTITCRASQSISSWLAWYQQKPGKAPKLLIYDASSLESGVPSRFSGSGSGTEFTLTISSLQPDDFATYYCQQYSSQPYTFGQGTKVEIKRTVAAPSVFIFPPSDRKLKSGTASVVCLLNNFYPREAKVQWKVDNALQSGNSQESVTEQDSKDSTYSLSSTLTLSKADYEKHKVYACEVTHQGLSSPVTKSFNRGEC
light 2: QVQLVQSGAEVKKPGSSVKVSCKASGGTFSSYAISWVRQAPGQGLEWMGGIIPIFGTANYAQKFQGRVTITADESTSTAYMELSSLRSEDTAVYYCARGLLWNYWGQGTLVTVSSASVAAPSVFIFPPSDEQLKSGTASVVCLLNNFYPREAKVQWKVDNALQSGNSQESVTEQDSKDSTYSLSSTLTLSKADYEKHKVYACEVTHQGLSSPVTKSFNRGEC
notes: huIgG1 P329G LALA, no knob-into-hole; also called 4+2 huEpCAM; 4 + 2 anti-huOX40, anti-huEpCAM
EC50 (human OX40 [2]): 0.01 nM
EC50 (human OX40 [3]): 0.04 nM
